Data: paper PMC7450096, “Structural mechanism for replication origin binding and remodeling by a metazoan origin recognition complex and its co-loader Cdc6” (Nature Communications, 2020)

Assays:
wild type DmORC = target: T1, wild type DmORC (Drosophila melanogaster, UniProt O16810+Q9W102); test: NADH-coupled ATPase assay (PK/LDH), Michaelis-Menten fit; format: biochemical; conditions: pH 7.6, 10 mM magnesium acetate, 300 mM potassium glutamate, 27 °C, no DNA; Orc1/4 site
T1 construct: gene Orc1; full-length heterohexamer Orc1-6; 6xHis (Orc1) and MBP (Orc4) tags cut by TEV; Hi5 insect cells; with Origin recognition complex subunit 2; Origin recognition complex subunit 3; Origin recognition complex subunit 5; Origin recognition complex subunit 6
T1 sequence (O16810 whole entry): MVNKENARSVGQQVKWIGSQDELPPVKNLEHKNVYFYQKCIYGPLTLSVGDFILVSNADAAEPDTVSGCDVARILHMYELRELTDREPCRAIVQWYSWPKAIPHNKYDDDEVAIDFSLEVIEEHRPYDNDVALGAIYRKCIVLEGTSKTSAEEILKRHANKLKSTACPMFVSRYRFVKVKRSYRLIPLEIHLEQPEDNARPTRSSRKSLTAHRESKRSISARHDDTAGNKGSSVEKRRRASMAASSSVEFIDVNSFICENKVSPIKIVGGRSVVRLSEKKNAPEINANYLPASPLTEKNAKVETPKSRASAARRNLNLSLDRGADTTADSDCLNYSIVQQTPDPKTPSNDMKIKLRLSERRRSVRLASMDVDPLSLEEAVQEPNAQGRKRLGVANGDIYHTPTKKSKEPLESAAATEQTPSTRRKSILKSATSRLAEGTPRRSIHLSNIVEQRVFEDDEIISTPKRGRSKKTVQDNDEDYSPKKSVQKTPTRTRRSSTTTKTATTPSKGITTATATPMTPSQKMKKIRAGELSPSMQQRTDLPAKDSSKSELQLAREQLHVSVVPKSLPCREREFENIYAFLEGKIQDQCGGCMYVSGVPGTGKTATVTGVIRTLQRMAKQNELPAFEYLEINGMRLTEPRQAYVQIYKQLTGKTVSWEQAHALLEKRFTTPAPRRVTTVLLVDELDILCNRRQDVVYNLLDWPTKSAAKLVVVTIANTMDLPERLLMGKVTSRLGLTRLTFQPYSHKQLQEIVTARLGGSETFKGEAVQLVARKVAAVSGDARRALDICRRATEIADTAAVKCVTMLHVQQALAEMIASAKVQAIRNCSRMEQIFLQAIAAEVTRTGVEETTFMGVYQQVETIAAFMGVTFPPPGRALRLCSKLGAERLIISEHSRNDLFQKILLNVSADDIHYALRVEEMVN
T1 sequence (Q9W102 1-459): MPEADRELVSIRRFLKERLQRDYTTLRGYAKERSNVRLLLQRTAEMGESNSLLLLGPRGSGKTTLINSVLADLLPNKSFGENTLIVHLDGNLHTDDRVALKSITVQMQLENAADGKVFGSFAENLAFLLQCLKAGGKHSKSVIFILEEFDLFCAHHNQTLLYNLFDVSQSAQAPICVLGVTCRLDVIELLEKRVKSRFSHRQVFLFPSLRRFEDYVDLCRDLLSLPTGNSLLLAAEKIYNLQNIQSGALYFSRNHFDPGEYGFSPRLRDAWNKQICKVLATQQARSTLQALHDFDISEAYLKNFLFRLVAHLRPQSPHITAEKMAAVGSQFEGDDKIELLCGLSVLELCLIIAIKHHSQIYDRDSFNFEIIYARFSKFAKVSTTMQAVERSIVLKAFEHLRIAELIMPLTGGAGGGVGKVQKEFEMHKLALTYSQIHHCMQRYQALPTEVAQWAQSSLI
T1 sequence (Q24168 whole entry partner): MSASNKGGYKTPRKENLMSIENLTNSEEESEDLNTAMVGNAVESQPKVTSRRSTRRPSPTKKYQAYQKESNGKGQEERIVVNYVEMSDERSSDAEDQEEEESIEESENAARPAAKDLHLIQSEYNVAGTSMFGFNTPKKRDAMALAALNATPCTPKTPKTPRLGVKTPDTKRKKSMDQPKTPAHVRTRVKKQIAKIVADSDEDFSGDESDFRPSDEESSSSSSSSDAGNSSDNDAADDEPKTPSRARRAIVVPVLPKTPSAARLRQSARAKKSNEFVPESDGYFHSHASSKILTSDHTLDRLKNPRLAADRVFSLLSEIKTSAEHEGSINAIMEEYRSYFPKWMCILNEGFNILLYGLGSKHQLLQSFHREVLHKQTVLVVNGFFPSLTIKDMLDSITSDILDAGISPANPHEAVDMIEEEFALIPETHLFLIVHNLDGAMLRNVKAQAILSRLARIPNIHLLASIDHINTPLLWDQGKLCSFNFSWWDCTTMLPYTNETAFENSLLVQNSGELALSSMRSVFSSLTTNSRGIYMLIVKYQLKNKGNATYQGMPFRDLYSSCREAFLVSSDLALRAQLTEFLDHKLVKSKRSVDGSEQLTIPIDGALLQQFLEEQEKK
T1 sequence (Q7K2L1 1-721 partner): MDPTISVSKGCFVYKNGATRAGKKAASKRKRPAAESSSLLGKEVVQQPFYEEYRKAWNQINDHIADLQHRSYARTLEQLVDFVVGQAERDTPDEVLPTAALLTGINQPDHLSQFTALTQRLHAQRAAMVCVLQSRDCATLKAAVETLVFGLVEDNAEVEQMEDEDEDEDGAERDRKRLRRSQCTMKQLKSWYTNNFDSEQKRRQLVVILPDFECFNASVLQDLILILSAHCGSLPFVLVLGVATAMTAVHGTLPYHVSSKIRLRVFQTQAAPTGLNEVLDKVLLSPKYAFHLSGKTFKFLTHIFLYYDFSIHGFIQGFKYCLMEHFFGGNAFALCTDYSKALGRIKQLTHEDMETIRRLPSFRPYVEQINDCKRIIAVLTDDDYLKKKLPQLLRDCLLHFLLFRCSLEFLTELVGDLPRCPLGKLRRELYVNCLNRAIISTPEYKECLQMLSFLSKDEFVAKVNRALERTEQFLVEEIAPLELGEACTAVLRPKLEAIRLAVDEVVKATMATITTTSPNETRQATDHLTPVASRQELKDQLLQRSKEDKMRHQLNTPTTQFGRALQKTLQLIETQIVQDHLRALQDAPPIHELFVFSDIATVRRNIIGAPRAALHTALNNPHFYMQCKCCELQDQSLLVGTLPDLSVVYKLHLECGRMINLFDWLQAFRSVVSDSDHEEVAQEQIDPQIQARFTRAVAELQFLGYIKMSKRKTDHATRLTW
T1 sequence (Q24169 whole entry partner): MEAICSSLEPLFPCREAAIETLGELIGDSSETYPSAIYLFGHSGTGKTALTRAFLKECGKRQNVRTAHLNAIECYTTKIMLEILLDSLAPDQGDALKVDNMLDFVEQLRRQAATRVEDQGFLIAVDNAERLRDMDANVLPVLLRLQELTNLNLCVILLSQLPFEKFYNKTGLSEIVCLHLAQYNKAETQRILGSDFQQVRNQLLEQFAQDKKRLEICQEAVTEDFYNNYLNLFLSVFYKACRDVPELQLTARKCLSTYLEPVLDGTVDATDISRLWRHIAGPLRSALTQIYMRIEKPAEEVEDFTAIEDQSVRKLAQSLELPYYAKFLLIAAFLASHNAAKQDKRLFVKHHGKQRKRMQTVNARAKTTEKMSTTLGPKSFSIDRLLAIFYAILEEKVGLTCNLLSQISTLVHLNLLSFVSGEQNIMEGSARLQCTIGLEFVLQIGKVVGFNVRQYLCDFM
T1 sequence (Q9Y1B2 whole entry partner): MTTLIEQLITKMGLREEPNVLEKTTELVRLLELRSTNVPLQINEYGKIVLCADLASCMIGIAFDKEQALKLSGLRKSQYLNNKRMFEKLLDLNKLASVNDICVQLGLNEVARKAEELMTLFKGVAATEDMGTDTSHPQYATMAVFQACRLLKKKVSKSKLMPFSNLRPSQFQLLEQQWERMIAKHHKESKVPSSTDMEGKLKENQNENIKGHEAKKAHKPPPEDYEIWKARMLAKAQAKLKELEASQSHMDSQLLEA

[1] = target: T2, ATP-DmORC (DmORC^Orc1ΔN), DNA-free (Drosophila melanogaster, UniProt O16810+Q24169+Q7K2L1+Q9W102); test: cryo-EM structure; format: binding; conditions: no DNA, no Cdc6; active conformation
T2 construct: gene Orc1; heterohexamer; Orc1 lacking N-terminal 439 residues (truncation inferred for the DNA-free structure); tags cut by TEV; Hi5 insect cells; with Origin recognition complex subunit 2; Origin recognition complex subunit 6
T2 sequence (O16810 440-924, stated change not applied): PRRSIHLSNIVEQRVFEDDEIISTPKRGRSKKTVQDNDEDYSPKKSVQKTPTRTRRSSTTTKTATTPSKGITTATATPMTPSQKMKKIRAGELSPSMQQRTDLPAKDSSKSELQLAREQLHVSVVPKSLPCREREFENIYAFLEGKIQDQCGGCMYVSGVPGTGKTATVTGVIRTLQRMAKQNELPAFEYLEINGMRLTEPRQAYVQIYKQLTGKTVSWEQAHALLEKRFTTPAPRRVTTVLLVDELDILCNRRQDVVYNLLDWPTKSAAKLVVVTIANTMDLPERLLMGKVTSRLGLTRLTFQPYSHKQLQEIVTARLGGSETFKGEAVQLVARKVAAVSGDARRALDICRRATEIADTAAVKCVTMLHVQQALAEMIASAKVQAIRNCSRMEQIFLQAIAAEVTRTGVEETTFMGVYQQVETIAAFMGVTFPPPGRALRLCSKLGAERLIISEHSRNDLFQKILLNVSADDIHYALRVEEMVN
T2 sequence (Q9W102 1-459, stated change not applied): as the sequence (Q9W102 1-459) above
T2 sequence (Q24169 whole entry, stated change not applied, the tested form may be a part): as the sequence (Q24169 whole entry partner) above
T2 sequence (Q7K2L1 1-721, stated change not applied): as the sequence (Q7K2L1 1-721 partner) above
T2 sequence (Q24168 whole entry partner, the tested form may be a part): as the sequence (Q24168 whole entry partner) above
T2 sequence (Q9Y1B2 whole entry partner, the tested form may be a part): as the sequence (Q9Y1B2 whole entry partner) above

[2] = target: T3, DmORC Orc1deltaN;DmCdc6deltaN241 (Drosophila melanogaster;Drosophila …, UniProt O16810;Q24168;Q7K2L1;Q9W102;Q24169;Q9Y1B2;Q9VSM9 …, |del1-241); test: cryo-EM; gel filtration; ATP, Mg2+; DNA bent 46 deg; Anisotropy: 1 nM dsDNA, 25 mM HEPES-KOH pH 7.6, 300 mM K-glutamate, 10 mM Mg-acetate, 10% glycerol, 0.1% NP40, 1 mM DTT, 0.1 mg/mL BSA, 0 or 1 mM ATP, 25 C, 40; conditions: protein: recombinant;recombinant; tags: tags cleaved;6xHis-MBP cleaved by TEV; copies: 1;1;1;1;1;1;1; blunt
DmORC Orc1deltaN = DmORC Orc1deltaN (Drosophila melanogaster, UniProt O16810;Q24168;Q7K2L1;Q9W102;Q24169;Q9Y1B2 440-924;1-618;1-721;1-459;1-460;1-257); test: cryo-EM; gel filtration; ATP, Mg2+; Anisotropy: 1 nM dsDNA, 25 mM HEPES-KOH pH 7.6, 300 mM K-glutamate, 10 mM Mg-acetate, 10% glycerol, 0.1% NP40, 1 mM DTT, 0.1 mg/mL BSA, 0 or 1 mM ATP, 25 C, 40; conditions: protein: recombinant; tags: tags cleaved; copies: 1;1;1;1;1;1; blunt
DmORC (Orc1-6) wild type [3] = target: T4, DmORC (Orc1-6) wild type (Drosophila melanogaster, UniProt O16810;Q24168;Q7K2L1;Q9W102;Q24169;Q9Y1B2 1-924;1-618;1-721;1-459;1-460;1-257); test: fluorescence anisotropy; 1 mM ATP; Hill fit (quadratic fit 1.7 nM); Anisotropy: 1 nM dsDNA, 25 mM HEPES-KOH pH 7.6, 300 mM K-glutamate, 10 mM Mg-acetate, 10% glycerol, 0.1% NP40, 1 mM DTT, 0.1 mg/mL BSA, 0 or 1 mM ATP, 25 C, 40; conditions: protein: recombinant; tags: 6xHis-Orc1 and MBP-Orc4 tags cleaved by TEV; copies: 1;1;1;1;1;1; label: 5' fluorescein-dT on top strand; blunt 40 bp; the 5' fluorescein-dT may add one unpaired T
[4] = target: T5, Drosophila origin recognition complex, full-length (DmORC) (Drosophila, UniProt O16810 1-924; Q24168 1-618; Q7K2L1 1-721; Q9W102 1-459; Q24169 1-460; Q9Y1B2 …); test: pull-down; MBP-DmCdc6 or 6xHis-MBP-DmCdc6ΔN (200 nM) as bait on amylose beads; DmORC (100 nM) with 60 bp AT-rich dsDNA (100 nM); 25 mM HEPES-KOH pH 7.6, 300 mM potassium glutamate, 10 mM magnesium acetate, 10% glycerol, 1 mM DTT, 0 or 1 mM ATP; 25 °C; SDS-PAGE and silver staining; conditions: both partners purified
T5 construct: Orc1, Drosophila, subunit of full-length DmORC; Orc2, Drosophila, subunit of full-length DmORC; Orc3, Drosophila, subunit of full-length DmORC; Orc4, Drosophila, subunit of full-length DmORC; Orc5, Drosophila, subunit of full-length DmORC; Orc6, Drosophila, subunit of full-length DmORC; Heterohexamer Orc1-6; also called wild type DmORC; not shown: 6xHis, N-terminal, cleaved; MBP, N-terminal, …

[5] = target: T3, DmORC Orc1deltaN;DmCdc6deltaN241; test: cryo-EM; ATP, Mg2+; state 1, bend ~22 deg; Anisotropy: 1 nM dsDNA, 25 mM HEPES-KOH pH 7.6, 300 mM K-glutamate, 10 mM Mg-acetate, 10% glycerol, 0.1% NP40, 1 mM DTT, 0.1 mg/mL BSA, 0 or 1 mM ATP, 25 C, 40; conditions: protein: recombinant;recombinant; tags: tags cleaved;6xHis-MBP cleaved by TEV; copies: 1;1;1;1;1;1;1; blunt
DmORC Orc3-K141A = DmORC Orc3-K141A (Drosophila melanogaster, UniProt O16810;Q24168;Q7K2L1;Q9W102;Q24169;Q9Y1B2 1-924;1-618;1-721;1-459;1-460;1-257, K141A); test: fluorescence anisotropy; 1 mM ATP; Anisotropy: 1 nM dsDNA, 25 mM HEPES-KOH pH 7.6, 300 mM K-glutamate, 10 mM Mg-acetate, 10% glycerol, 0.1% NP40, 1 mM DTT, 0.1 mg/mL BSA, 0 or 1 mM ATP, 25 C, 40; conditions: protein: recombinant; tags: tags cleaved; copies: 1;1;1;1;1;1; label: 5' fluorescein-dT (/5FluorT/) on top strand; blunt 40 bp; the 5' fluorescein-dT may add one unpaired T
DmORC Orc4-R97A = DmORC Orc4-R97A (Drosophila melanogaster, UniProt O16810;Q24168;Q7K2L1;Q9W102;Q24169;Q9Y1B2 1-924;1-618;1-721;1-459;1-460;1-257, R97A); test: as above; conditions: protein: recombinant; tags: tags cleaved; copies: 1;1;1;1;1;1; label: 5' fluorescein-dT (/5FluorT/) on top strand; blunt 40 bp; the 5' fluorescein-dT may add one unpaired T
DmORC (Orc1-6) wild type [6] = target: T4, DmORC (Orc1-6) wild type; test: as above; conditions: protein: recombinant; tags: 6xHis-Orc1 and MBP-Orc4 tags cleaved by TEV; copies: 1;1;1;1;1;1; label: 5' fluorescein-dT on top strand; blunt 40 bp; the 5' fluorescein-dT may add one unpaired T

Molecule: Nc1ncnc2c1ncn2[C@@H]1O[C@H](COP(=O)(O)OP(=O)(O)OP(=O)(O)O)[C@@H](O)[C@H]1O [ATP]
- NADH-coupled ATPase assay (PK/LDH), Michaelis-Menten fit (wild type DmORC): we measured the ATP hydrolysis rates of wild type DmORC
- cryo-EM structure [1]: our DNA-free ATP-DmORC cryo-EM structure

B1: 60 bp AT-rich (dsDNA)
DNA 1: CCTGCAGGCCTTTTGAAAAGCAAGCATAAAAGATCTAAACATAAAATCTGTAAAATAACA
DNA 2: TGTTATTTTACAGATTTTATGTTTAGATCTTTTATGCTTGCTTTTCAAAAGGCCTGCAGG
- binding result [2]: binds
- binding result (DmORC Orc1deltaN): binds

B2: 40 bp poly(dA.dT) (dsDNA)
DNA 1: TTTTTTTTTTTTTTTTTTTTTTTTTTTTTTTTTTTTTTTT
DNA 2: AAAAAAAAAAAAAAAAAAAAAAAAAAAAAAAAAAAAAAAA
- Kd (DmORC (Orc1-6) wild type [3]): 2.1 nM

B3: full-length MBP-tagged Drosophila Cdc6 (MBP-DmCdc6) (natural protein, UniProt Q9VSM9 1-662, looked up)
chain: MAAVRRSTRLSSISKATAASPLPPSTQTPRRSEVWKRRQPKKVLADSDEEEEVVTAIYDLTSPVSENNENRNVLNKMDKISRRRTSQVQVAQSELPKTPRSTKKTVQSAGSSRAKREEENREATARFLEGEQDSEVDPLHGSPPKQRKLQPLPQHLISPSRLLDRLSIDERQEEEVEATTHKTETAEQQPKHQAKDEAKPRPKQQEDPLAQKQQEKPPTKQPNKNQTKEKSNIQTNEETQQNNLPSPSRNKYQNARRVLNSAETQNLPGRESQLQELREFFSNHLESQTSGSLYVSGQPGTGKTACLSLLLRDPDFSKRLQRVYINCTSIASVGAVYKKLCTELQLKVSGRTERDHLEAIQRHLKTAKRMLLLVLDEIDQLCTSRQEVLYTIFEWPALPGSRILLVGIANSLDLTDRALMRLNARCELKPRLMHFPPYSKQQIVEIFKSRLAEAEVLDVFPPVTLQLLAAKVSAISGDVRRALDIGRRVVEIAEQQKRDGEKEFNMKALQLEGKDAVEAKEKQDTLKPVQVTQVAAVLNKVYGASQNLEEDIEASFPLQQKLMLCTLVLMLRNERNKDISMGRLHEVYRRVCAKRNILALDQAEFTGTVDLVETRGILRIMRKKEPRLHKVLLQWDEEEVHAALSDKQLIASILSDTACLSK
notes: TEV site between MBP and Cdc6; source: Hi5 insect cells, baculovirus, purified (amylose, gel filtration); not shown: MBP, N-terminal, kept
- binding result [4]: binds

B4: 60 bp poly(dA.dT) (dsDNA)
DNA 1: AAAAAAAAAAAAAAAAAAAAAAAAAAAAAAAAAAAAAAAAAAAAAAAAAAAAAAAAAAAA
DNA 2: TTTTTTTTTTTTTTTTTTTTTTTTTTTTTTTTTTTTTTTTTTTTTTTTTTTTTTTTTTTT
- binding result [5]: binds

B5: 40 bp AT-rich (ARS1-like) (dsDNA)
DNA 1: TTTTGAAAAGCAAGCATAAAAGATCTAAACATAAAATCTG
DNA 2: CAGATTTTATGTTTAGATCTTTTATGCTTGCTTTTCAAAA
- binding signal (DmORC Orc3-K141A): ~3 fold higher Kd than wild type
- binding signal (DmORC Orc4-R97A): ~3 fold higher Kd than wild type

B6: 40 bp 100% GC (dsDNA)
DNA 1: CGCCGGGGCCGGGGGCGCCCCGCCGCGCGGGGCCGGGCCC
DNA 2: GGGCCCGGCCCCGCGCGGCGGGGCGCCCCCGGCCCCGGCG
- binding signal (DmORC (Orc1-6) wild type [6]): ~20 fold higher Kd than poly(dA.dT)
